One assay concerns the target T1, Mouse Gremlin-His (R&D) (mouse, UniProt O70326 25-184).
T1 construct: Lys25-Asp184 with 10xHis, R&D 956-GR; also called mouse gremlin (R&D); mGREM1
T1 sequence: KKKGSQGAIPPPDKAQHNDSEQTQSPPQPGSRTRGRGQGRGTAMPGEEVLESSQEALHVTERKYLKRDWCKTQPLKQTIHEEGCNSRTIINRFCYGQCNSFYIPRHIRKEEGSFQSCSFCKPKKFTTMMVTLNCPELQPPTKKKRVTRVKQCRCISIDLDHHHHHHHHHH
The assay is described as follows: ELISA on coated Mouse Gremlin-his, anti-mouse IgG-HRP. On the procedure: Clear polystyrene plates (BEAVER) were coated with 100 μl/well of a […] hGREM1 (ACRO) and mouse gremlin (R&D) in high pH coating buffer overnight at 4° C. Then the plates were washed once on an automatic plate washer using PBS+0.1% Tween 20 (Sigma). 100 μl of block solution consisting of PBS+1% BSA+1% normal goat serum+0.5% Tween 20 (Sigma) was added to each well and incubated at room temperature for 2 hours. Then 100 μl of antibodies in antibody dilution buffer containing PBS+1% BSA+1% normal goat serum+0.01% Tween 20 starting from 2 μg/ml and then serial dilutions were added to each well of the plate and incubated for 1 hours at room temperature. Afterward the plates were washed three times with 200 μl of PBS+0.1% Tween20 followed by adding 100 μl/well 1:10000 Goat anti mouse IgG-HRP (abcam), and incubate for 1 hour at room temperature. They were then washed 3× with PBS+0.1% Tween20. Finally, 100 µl/well of TMB (Pierce) was added to each well and after several minutes add 50 μl of stop solution to each well. The plates were read on a Multiscan FC microplate reader (Thermo Scientific) at […].

Another assay deals with T2, HGREM1-His (ACRO) (human, UniProt O60565 25-184).
T2 construct: Lys25-Asp184 of NP_037504 with C-terminal polyhistidine tag (ACRO GR1-H52H3); they are put here; also called hGREM1 (ACRO); human gremlin (ACRO)
T2 sequence: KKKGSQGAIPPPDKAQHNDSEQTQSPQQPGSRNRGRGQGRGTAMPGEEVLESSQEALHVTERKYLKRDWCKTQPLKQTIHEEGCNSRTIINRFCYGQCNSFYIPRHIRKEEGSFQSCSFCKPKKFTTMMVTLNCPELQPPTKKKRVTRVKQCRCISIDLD
As to the kind of experiment: ELISA on coated hGREM1 (Example 5: ACRO; sheet title: DAN Family,R&D,0.5ug/ml), anti-mouse IgG-HRP. As to the method: (§1) In addition, the specificity of the binding of 14E3 and a benchmark antibody was assessed with ELISA. Briefly, clear polystyrene plates (BEAVER) were coated with 100 μl/well of a […] hGREM1 (ACRO), or human gremlin-2 (R&D), human COCO (R&D) and human DAN protein (R&D) in high pH coating buffer overnight at 4° C. Then the plates were washed once on an automatic plate washer using PBS+0.1% Tween 20 (Sigma). 100 μl of block solution consisting of PBS+1% BSA+1% normal goat serum+0.5% Tween 20 (Sigma) was added to each well and incubated at room temperature for 2 hours. Then 100 ul of antibodies in antibody dilution buffer containing PBS+1% BSA+1% normal goat serum+0.01% Tween 20 starting from 2 μg/ml and then 5 fold serial dilution were added to each well of the plate and incubated for 1 hours at room temperature. Afterward the plates were washed three times with 200 ul of PBS+0.1% Tween20 followed by adding 100 μl/well 1:10000 Goat anti mouse IgG-HRP (Abcam), and incubate for 1 hour at room temperature. They were then washed 3× with PBS+0.1% Tween20. Finally, 100 µl/well of TMB (Pierce) was added to each well and after 5 minutes add 50 ul of stop solution to each well. The plates were read on a Multiscan FC microplate reader (Thermo Scientific) at […].
(An ELISA detects its analyte on a solid surface through an enzyme-linked reagent.)

A further assay concerns the target T3, human gremlin-2 (R&D) (human, UniProt Q9H772 22-168, limits assumed).
T3 construct: also called GREM2
T3 sequence (looked up): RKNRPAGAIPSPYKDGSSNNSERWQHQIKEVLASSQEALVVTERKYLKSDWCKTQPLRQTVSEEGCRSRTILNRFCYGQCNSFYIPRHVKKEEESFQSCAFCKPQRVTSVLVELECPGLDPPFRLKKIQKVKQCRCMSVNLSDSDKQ
As to the kind of experiment: ELISA on coated human gremlin-2 (R&D, 0.5ug/ml), anti-mouse IgG-HRP. On the procedure:
as §1

Another assay deals with T4, DAN-his (Sinobiological) (human, UniProt P41271 17-181, limits assumed).
T4 construct: also called DAN (Sinobiological); human DAN-his
T4 sequence (looked up): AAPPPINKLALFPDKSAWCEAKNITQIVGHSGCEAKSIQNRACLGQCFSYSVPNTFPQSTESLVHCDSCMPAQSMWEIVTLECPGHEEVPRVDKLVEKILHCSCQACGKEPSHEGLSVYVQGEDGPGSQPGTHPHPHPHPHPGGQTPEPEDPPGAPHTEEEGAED
The assay is described as follows: ELISA on coated DAN-his; unit from the axis Ab(nM). On the procedure: Clear polystyrene plates (BEAVER) were coated with 100 μl/well of a 0.5 μg/ml human gremlin (ACRO) and DAN (Sinobiological) in high pH coating buffer overnight at 4° C. Then the plates were washed once on an automatic plate washer using PBS+0.1% Tween 20 (Sigma). 100 μl of block solution consisting of PBS+1% BSA+1% normal goat serum+0.5% Tween 20 (Sigma) was added to each well and incubated at room temperature for 2 hours. Then 100 ul of antibodies (hybridoma or chimeric antibody 36F5, chimeric antibody 67G11, chimeric antibody 42B9) in antibody dilution buffer containing PBS+1% BSA+1% normal goat serum+0.01% Tween 20 starting from 2 μg/ml (13.33 nM) and then 4 fold serial dilution were added to each well of the plate and incubated for 1 hours at room temperature. Afterward the plates were washed three times with 200 ul of PBS+0.1% Tween20 followed by adding 100 μl/well 1:10000 Goat anti mouse IgG-HRP or mouse anti-human IgG-HRP (abcam), and incubate for 1 hour at room temperature. They were then washed 3× with PBS+0.1% Tween20. Finally, 100 μl/well of TMB (InnoReagents) was added to each well and after 2 minutes add 50 ul of stop solution to each well. The plates were read on a Multiscan FC microplate reader (Thermo Scientific) at 450 nm.

B1: 14E3 (antibody, V domains shown)
VH: QIQLVQSGPELKKPGETVKISCKTSGSTFTTYGMAWMKQAPGKGLTWMGWINTLSGEPTYADDFKGRFAFSLKTSANTAYLQINNLKNEDAATYFCAREPMDYWGQGTSVIVSS
VL: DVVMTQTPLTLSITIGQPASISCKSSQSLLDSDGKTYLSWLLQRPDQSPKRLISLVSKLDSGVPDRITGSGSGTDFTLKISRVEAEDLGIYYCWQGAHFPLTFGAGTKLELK
notes: mouse hybridoma antibody; also called hybridoma 14E3; anti-gremlin1 antibody 14E3
On to B1, for which the binding result with Mouse Gremlin-His (R&D) is on record as “no binding”; in the assay with human gremlin-2 (R&D), “no binding (tested: 1 ug/ml)”. Also, the concentration for a half-maximal effect (EC50 (read off the curve)) – broadly, the concentration giving half of the maximal effect – in the assay with HGREM1-His (ACRO) is about 0.01 µg/mL.

B2: 36F5 (antibody, V domains shown)
VH: QVQLQQSGAELARPGASVKLSCKASGYSFTSSGIGWVKQRSGQGLEWIGEIYPRSGNTYNNEKFKGKATLTADKSSSTVYMELRSLTSEDSAVYFCVREAYSHHYYAMDYWGQGTSVTVFS
VL: DVLMTQTPLSLPVSLGGQASISCRSSQSLLHSNGNTYLEWYLQKPGQSPKLLIYKVSNRFSGVPDRLSGSGSGTDFTLKISRVEAEDLGVYYCFQGSHVPFTFGSGTKLEIN
notes: mouse hybridoma antibody; also called hybridoma 36F5
As for B2, the concentration giving a half-maximal response (EC50) (usually the concentration needed to bring the measured effect to its halfway point) in the assay with DAN-his (Sinobiological) is 0.0309 nM. In other words, the picomolar range.

The values are drawn from patent publication US20240294622A1 (SUZHOU TRANSCENTA THERAPEUTICS, published 2024).
